This is an account of results in paper PMC4529489.

One experiment has as its target Human Ubc13 R85S (human). Briefly: ITC.
Experiment [1] has as its target Human Ubc13, wild type (human). Briefly: ITC.
Another experiment concerns the target Ube2V2 (Homo sapiens) (UniProt Q15819). The conditions noted are these: cited from earlier work.

On to Human Ube2V2 (natural protein), for which the fold increase of Kd against WT Ubc13 with Human Ubc13 R85S (human) was more than 30 times.

Take Human Ube2V2 E20A (natural protein): in experiment [1], the fold increase of Kd against WT Ube2V2 came out at 4 times.

On to Ubc13 (from UniProt P61088), for which the Kd with Ube2V2 (Homo sapiens) was 50 nM.
